# In paper PMC2978731 (PLoS Pathogens, 2010):
# B1: Fab D5 (Fab, V domains shown)
# VH: QVQLVQSGAEVRKPGASVKVSCKASGDTFSSYAISWVRQAPGQGLEWMGGIIPIFGTANYAQAFQGRVTITANESTSTAYMELSSLRSEDTAIYYCARDNPTLLGSDYWGAGTLVTVSS
# VL: DIQMTQSPSTLSASIGDRVTITCRASEGIYHWLAWYQQKPGKAPKLLIYKASSLASGAPSRFSGSGSGTDFTLTISSLQPDDFATYYCQQYSNYPLTFGGGTKLEIK
# notes: also called D5 (Fab format); D5 antibody; source: provided by Joseph Joyce (Merck Research Laboratories)
# B2: IgG D5 (antibody, V domains shown)
# VH: B1 VH
# VL: B1 VL
# notes: also called D5 monoclonal antibody; D5 IgG; source: provided by Joseph Joyce (Merck Research Laboratories); copies: 2 + 2
# What was measured:
# [1] = biological target: T1, 5-Helix (tag-less version) (HIV-1 group M subtype B, HXB2 (gp41 …)); assay: ITC; conditions: both partners purified
# T1 construct: source: E. coli, purified from the insoluble fraction under denaturing conditions (Superdex-200, reverse-phase HPLC)
# [2] = biological target: T1, 5-Helix (tag-less version); assay: cell-based or functional assay
# [3] = biological target: T1, 5-Helix (tag-less version); assay: ITC; conditions: both partners purified; remark: listed apart in the source
binder,measurement,setting,value
B1,Kd,[1],~10 nM
same,"HIV-1 neutralization IC50, Env-pseudotyped virus, 89.6 Env",[2],890 nM
same,"HIV-1 neutralization IC50, Env-pseudotyped virus, HXB2 Env",[2],300 nM
same,"HIV-1 neutralization IC50, Env-pseudotyped virus, JR CSF Env",[2],640 nM
same,"HIV-1 neutralization IC50, Env-pseudotyped virus, SF162 Env",[2],1300 nM
B2,Kd,[1],< 20 nM
same,stoichiometry N,[3],2 5-Helix per D5 IgG
same,"HIV-1 neutralization IC50, Env-pseudotyped virus, 89.6 Env",[2],2240 nM
same,"HIV-1 neutralization IC50, Env-pseudotyped virus, HXB2 Env",[2],230 nM
same,"HIV-1 neutralization IC50, Env-pseudotyped virus, JR CSF Env",[2],640 nM
same,"HIV-1 neutralization IC50, Env-pseudotyped virus, SF162 Env",[2],940 nM
